Source: the supplement of paper PMC9732359
± gives the uncertainty stated by the source.

Test: protein stability index of a GFP-peptide fusion (yeast GPS) (PSI 1-4); higher = more stable; sorted into four equal gates, so the index is relative within each strain
In short: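 Peptides tiling yeast proteins in 17-residue segments were fused downstream of GFP, with Cherry expressed from the same plasmid. As a pooled library in yeast, mid-log cultures grown in leucine-free medium were sorted into four equal gates by GFP/Cherry fluorescence ratio. Gate plasmids were PCR-amplified and Illumina-sequenced, and barcodes linked reads to strains. Each peptide received a protein stability index equal to the sum of each gate's read frequency times its gate number.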

Sequence | protein stability index (doa10∆) | protein stability index (pdr5∆) | protein stability index (san1∆) | protein stability index (ubr1∆)
RIIGLSATLPNYEDVGR [BRR2] | 2.23 ± 0.045 | 2.18 ± 0.039 | 2.33 ± 0.044 | 1.94 ± 0.039
TDAGVLALKLELLDFLT [YJL039C/NUP192] | 2.84 ± 0.061 | 2.98 ± 0.078 | 2.96 ± 0.052 | 3.02 ± 0.046
NTSAQHVESDKITAKTQ [IRR1] | 2.92 ± 0.05 | 2.99 ± 0.039 | 2.95 ± 0.05 | 3.08 ± 0.042
NGASVPINLHPSKLVIT [RPL26A] | 1.75 ± 0.058 | 1.83 ± 0.06 | 1.96 ± 0.067 | 1.41 ± 0.05
VAIDQDKITLHDEKTLA [SIR4] | 2.01 ± 0.097 | 2.22 ± 0.096 | 2.26 ± 0.17 | 2.71 ± 0.08
SIMPDLYFYRDPEEVEQ [RPS0A] | 2.86 ± 0.082 | 2.95 ± 0.077 | 2.94 ± 0.063 | 2.85 ± 0.06
VTKQSELNSSEDILEDM [SMC1] | 3.37 ± 0.065 | 3.25 ± 0.059 | 3.22 ± 0.041 | 3.18 ± 0.049
YWKLWIDEPFNLDFDPR [FAS1] | 3.52 ± 0.12 | 2.84 ± 0.13 | – | 2.27 ± 0.15
SLQSSSQTQLENANAAN [MED2] | 1.96 ± 0.075 | 2.6 ± 0.056 | 2.64 ± 0.091 | 1.33 ± 0.035
EITSVLSNLHESNKRYR [SNF12] | 3.1 ± 0.085 | 3.05 ± 0.071 | 2.94 ± 0.054 | 3.08 ± 0.052
CDDESGDNEYITLRTSG [MCD1] | 3.29 ± 0.16 | 3.29 ± 0.099 | 3.04 ± 0.072 | 3.47 ± 0.061
GELLHHPIMETIVNDSN [RPN9] | 2.6 ± 0.053 | 2.77 ± 0.054 | 2.2 ± 0.08 | 2.97 ± 0.078
CGLMTVIAKLNHNQFEC [RPB2] | 2.33 ± 0.09 | 2.35 ± 0.078 | 1.5 ± 0.12 | 1.7 ± 0.15
ALMKTLIKFVDLSRNGR [NUT1] | 2.37 ± 0.11 | 2.29 ± 0.09 | 2.26 ± 0.11 | 2.65 ± 0.15
MPPKQQLSKAAKAAAAL [RPS25A] | 1.73 ± 0.048 | 1.87 ± 0.05 | 1.76 ± 0.062 | 1.83 ± 0.042
FSEEKAEEFDFNVPVVS [YAR002W/NUP60] | 2.48 ± 0.18 | 1.34 ± 0.16 | 1.3 ± 0.13 | 1.15 ± 0.12
GGESMEGPKKCIQVNCL [SNM1] | 1.92 ± 0.053 | 1.95 ± 0.054 | 2.23 ± 0.1 | 1.79 ± 0.054
LDKIYTRPISSQVLDLA [SMC2] | 1.53 ± 0.079 | 2.01 ± 0.08 | 1.25 ± 0.15 | 1.27 ± 0.054
LQGDLTFTKKCLENARS [SIR4] | 3.23 ± 0.064 | 3.11 ± 0.059 | 3.05 ± 0.047 | 2.96 ± 0.041
LPQCIIPSSYIKRTDEG [ARP7] | 2.77 ± 0.1 | 2.59 ± 0.068 | 2.13 ± 0.099 | 2.49 ± 0.065
AVAGLTADAEILINTAR [PRE9] | 2.98 ± 0.11 | 3.02 ± 0.088 | 3.07 ± 0.1 | 3.09 ± 0.078
AARDNKKTRIIPRHLQL [HTA1] | 3.04 ± 0.18 | 3.38 ± 0.11 | 3.37 ± 0.13 | 3.15 ± 0.19
KRKPAKSSSNRSCVSNS [RPN4] | 2.89 ± 0.059 | 3.01 ± 0.077 | 3.08 ± 0.065 | 2.98 ± 0.048
VLKACGILSDLEIMQLV [RET1] | 1.56 ± 0.11 | – | 1.46 ± 0.22 | 2.56 ± 0.082
TDGELDIEFINSLLTIV [RPC34] | 2.78 ± 0.095 | 2.68 ± 0.14 | 2.4 ± 0.092 | 2.81 ± 0.091
SPMINSTSSGKVSYAVK [SNM1] | 2.6 ± 0.11 | 3.11 ± 0.065 | 2.32 ± 0.097 | 2.93 ± 0.056

Sequence | protein stability index (doa10∆) | protein stability index (pdr5∆) | protein stability index (san1∆) | protein stability index (ubr1∆)
NVPGVETANVASLNLLQ [RPL4A] | 2.71 ± 0.053 | 3.05 ± 0.055 | 2.86 ± 0.044 | 2.87 ± 0.041
GNLIGVDPFDSDEEESV [SNU114] | 3.03 ± 0.075 | 3.14 ± 0.059 | 3 ± 0.057 | 3.2 ± 0.054
IASAGKDGEIMLWNLAA [ASC1] | 2.92 ± 0.077 | 1.66 ± 0.053 | 3.03 ± 0.054 | 3.09 ± 0.076
DSAAIIAATGLNQINGL [GRR1] | 2.85 ± 0.096 | 2.83 ± 0.089 | 2.79 ± 0.083 | 2.96 ± 0.073
FKDRFKDEPVQNDILQE [FAS2] | 3.35 ± 0.13 | 3.03 ± 0.15 | 3.23 ± 0.072 | 3.46 ± 0.092
TVAHIQYDFKAVLEEND [RPN14] | 1.95 ± 0.12 | 2.72 ± 0.2 | 2.26 ± 0.11 | 2.28 ± 0.24
NSSSMEEVMRIALMGQD [ESC2] | 2.69 ± 0.068 | 2.67 ± 0.075 | 2.19 ± 0.12 | 2.62 ± 0.049
LVKALEDIMVHYDNTTR [RPO21] | 1.46 ± 0.061 | 1.91 ± 0.062 | 1.32 ± 0.086 | 1.68 ± 0.072
DDIYDISLLKNRRKQSF [RPN4] | 2.91 ± 0.11 | 3.08 ± 0.12 | 3.13 ± 0.12 | 3.1 ± 0.14
DDDDYNAEKYFNNGDDD [RPC31] | 3.01 ± 0.12 | 3.13 ± 0.16 | 3.06 ± 0.082 | 3.19 ± 0.07
LPIESQFVSKLVDNLNA [BRR2] | 2.32 ± 0.052 | 2.34 ± 0.049 | 2.5 ± 0.072 | 2.4 ± 0.059
NPIIENNVDNKYKSGGK [SSN2] | 2.92 ± 0.052 | 3.01 ± 0.041 | 3.04 ± 0.043 | 3.07 ± 0.041
VQQQQQQQLRNQIQRQQ [SNF5] | 2.16 ± 0.071 | 2.5 ± 0.12 | 2.07 ± 0.2 | 2.06 ± 0.074
LKLSMADYNGALLRVTK [POP4] | 2.82 ± 0.076 | 2.52 ± 0.05 | 2.61 ± 0.07 | 2.52 ± 0.053
QDVDFYKNLDRGFSKDL [RRP6] | 3.44 ± 0.13 | 3.75 ± 0.15 | 3.25 ± 0.074 | 3.23 ± 0.097
RRIPKRMRNRALREMRK [POP1] | 3.26 ± 0.11 | 2.45 ± 0.058 | 3.34 ± 0.078 | 2.88 ± 0.13
QKNFMDQFQWILRKPGK [RRI2] | 2.42 ± 0.14 | 2.66 ± 0.12 | 2.67 ± 0.15 | 2.49 ± 0.091
LFAFNGVARNFHFAIEQ [SIN4] | 3.01 ± 0.14 | 2.8 ± 0.079 | 2.55 ± 0.069 | 3.06 ± 0.064
LLVKLSKRLPLRFPEHT [BRR2] | 2.3 ± 0.063 | 2.75 ± 0.07 | 2.25 ± 0.17 | 2.42 ± 0.062
LFGEKSILGKFCPIVEE [YCS4] | 1.55 ± 0.041 | 1.74 ± 0.052 | 1.57 ± 0.11 | 1.73 ± 0.039
RNQILVSITDAPKIHIL [YMR129W/POM152] | 1.43 ± 0.041 | 1.35 ± 0.036 | 1.26 ± 0.057 | 1.61 ± 0.038
SINVHSNNITSGLNRAI [RET1] | 3.19 ± 0.1 | 3.24 ± 0.07 | 3.24 ± 0.052 | 3.17 ± 0.052
VTTNINWRSFNAKIIDA [SRP68] | 3.14 ± 0.081 | 3 ± 0.083 | 3.06 ± 0.059 | 3.18 ± 0.05
ATKEGVVLGVEKRATSP [PUP2] | 2.72 ± 0.14 | 3.14 ± 0.087 | 3.15 ± 0.083 | 3.19 ± 0.053
FTNVPLNLEQVTLNKYC [YJL039C/NUP192] | 1.99 ± 0.047 | 1.99 ± 0.045 | 1.92 ± 0.077 | 2.14 ± 0.045
SLLSLVGHLSILPQQSK [ECM29] | 2.21 ± 0.048 | 2 ± 0.052 | 1.94 ± 0.058 | 1.64 ± 0.027
